Patent publication US20230212305A1 (published 2023)

How the values were obtained:
human ABCG2 [1] = molecular target: T1, human ABCG2 (UniProt Q9UNQ0 1-655); experiment: FACS binding to 293T.hG2 cells
T1 chain: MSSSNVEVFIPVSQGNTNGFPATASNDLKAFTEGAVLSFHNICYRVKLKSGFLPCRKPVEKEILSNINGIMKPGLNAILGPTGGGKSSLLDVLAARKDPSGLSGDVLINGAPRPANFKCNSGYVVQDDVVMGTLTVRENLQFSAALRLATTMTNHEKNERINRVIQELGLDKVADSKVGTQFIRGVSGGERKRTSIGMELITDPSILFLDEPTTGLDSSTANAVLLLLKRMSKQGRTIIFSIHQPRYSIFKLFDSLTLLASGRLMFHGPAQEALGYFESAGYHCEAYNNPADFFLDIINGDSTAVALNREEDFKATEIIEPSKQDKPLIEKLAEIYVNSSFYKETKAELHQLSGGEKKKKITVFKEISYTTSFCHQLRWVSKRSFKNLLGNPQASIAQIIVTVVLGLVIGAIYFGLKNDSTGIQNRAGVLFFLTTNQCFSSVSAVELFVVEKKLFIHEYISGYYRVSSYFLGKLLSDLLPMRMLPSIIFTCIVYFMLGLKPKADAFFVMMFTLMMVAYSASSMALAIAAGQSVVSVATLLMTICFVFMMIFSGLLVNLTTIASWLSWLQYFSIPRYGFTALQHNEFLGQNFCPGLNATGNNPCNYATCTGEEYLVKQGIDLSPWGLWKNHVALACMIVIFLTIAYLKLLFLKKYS

human ABCG2 [2] = molecular target: T1, human ABCG2; experiment: FACS cell binding (MFI)
[3] = molecular target: T2, cynomolgus ABCG2 (Macaca fascicularis) (UniProt Q5MB13 1-654); experiment: cell binding
T2 chain: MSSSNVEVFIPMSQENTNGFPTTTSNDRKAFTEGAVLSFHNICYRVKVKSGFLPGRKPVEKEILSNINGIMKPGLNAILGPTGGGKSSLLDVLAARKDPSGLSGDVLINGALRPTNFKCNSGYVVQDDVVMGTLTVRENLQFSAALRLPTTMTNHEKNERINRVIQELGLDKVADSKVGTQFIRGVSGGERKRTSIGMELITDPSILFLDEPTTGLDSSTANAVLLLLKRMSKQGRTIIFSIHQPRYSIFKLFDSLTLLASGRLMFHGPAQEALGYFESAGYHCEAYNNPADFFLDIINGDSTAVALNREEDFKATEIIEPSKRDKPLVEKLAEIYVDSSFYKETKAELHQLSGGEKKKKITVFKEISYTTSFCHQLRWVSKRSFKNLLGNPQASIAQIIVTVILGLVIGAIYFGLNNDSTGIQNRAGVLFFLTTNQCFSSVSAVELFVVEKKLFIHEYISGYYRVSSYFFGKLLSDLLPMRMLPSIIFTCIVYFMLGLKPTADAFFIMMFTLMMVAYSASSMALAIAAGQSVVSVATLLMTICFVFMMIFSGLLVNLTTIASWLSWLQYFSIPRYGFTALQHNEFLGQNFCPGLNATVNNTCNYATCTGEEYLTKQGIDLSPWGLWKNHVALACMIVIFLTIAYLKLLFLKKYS

human ABCG2 [4] = molecular target: T1, human ABCG2; experiment: cell binding
[5] = molecular target: T2, cynomolgus ABCG2 (Macaca fascicularis); experiment: FACS binding to 293T.cG2 cells
[6] = molecular target: T2, cynomolgus ABCG2 (Macaca fascicularis); experiment: FACS binding to 293T cells
human ABCG2 [7] = molecular target: T1, human ABCG2; experiment: FACS binding to 293T cells
[8] = molecular target: T2, cynomolgus ABCG2 (Macaca fascicularis); experiment: FACS binding to 293T cells
human ABCG2 [9] = molecular target: T1, human ABCG2; experiment: FACS binding to 293T cells
human ABCG2 [10] = molecular target: T1, human ABCG2; experiment: FACS cell binding
G2_639 = experiment: FACS binding to 293T cells
G2_418 = experiment: FACS binding to 293T cells
G2_656 = experiment: FACS binding to 293T cells
G2_377 = experiment: FACS binding to 293T cells
G2_709 = experiment: FACS binding to 293T cells
G2_336 = experiment: FACS binding to 293T cells
[11] = molecular target: T2, cynomolgus ABCG2 (Macaca fascicularis); experiment: FACS binding to 293T cells
human ABCG2 [12] = molecular target: T1, human ABCG2; experiment: FACS binding to 293T cells
[13] = molecular target: T2, cynomolgus ABCG2 (Macaca fascicularis); experiment: FACS binding to 293T cells
human ABCG2 [14] = molecular target: T1, human ABCG2; experiment: FACS binding to 293T cells

B1: anti-ABCG2 antibody 5D3 (antibody, V domains shown)
VH: QVQLQESGPGLVKPSQSLSLTCTVTGFSITSDYAWNWIRQFPGKKLEWMGYINFDGGTTYNPSLRGRISITRDTSKNQFFLQLRSVTPEDTATYYCATFYGAKGTLDYWGQGTSVTVSS
VL: DIVLTQSPSSFSVSLGDRVTISCKASGYILNRLAWYQQKPGNAPRLLISGATSLETGFPSRFSGTGSGKDYTLSISSLQTEDVGTYYCQQYWSTPWTFGGGTKLEIK
Kd (human ABCG2 [1]): 37.7 nM | EC50 (human ABCG2 [2]): 8.5 nM | EC50 [3]: 131 nM | EC50 (human ABCG2 [4]): 4.9 nM | Kd [5]: 99.2 nM | Kd [6]: 99.2 nM | Kd (human ABCG2 [7]): 37.7 nM | Kd [8]: 253 nM | Kd (human ABCG2 [9]): 15.7 nM

B2: G2.302 mouse (antibody, V domains shown)
VH: QIQLQQSGPELVRPGASVKISCKASGYTFTDYYINWVKQRPGQGLEWIGWIYPGNVNVKYNEKFKGKATLTVDTSSSTGYMQLRSLTSEDSAVYFCARSIGLRYFDNWGQGTTLTVSS
VL: EKVLTQSPAIMSASLGEKVTMSCRASSSVHYMYWHQQKSDASPRLWIYYTSNLAPGVPARFSGSGSGNFYSLTISSVEDEDGATYYCQQFTTSTWTFGGGTKLEIK
Kd (human ABCG2 [10]): 33.6 nM | EC50 (human ABCG2 [2]): 18.5 nM

B3: cG2 (other)
chain: MSSSNVEVFIPMSQENTNGFPTTTSNDRKAFTEGAVLSFHNICYRVKVKSGFLPGRKPVEKEILSNINGIMKPGLNAILGPTGGGKSSLLDVLAARKDPSGLSGDVLINGALRPTNFKCNSGYVVQDDVVMGTLTVRENLQFSAALRLPTTMTNHEKNERINRVIQELGLDKVADSKVGTQFIRGVSGGERKRTSIGMELITDPSILFLDEPTTGLDSSTANAVLLLLKRMSKQGRTIIFSIHQPRYSIFKLFDSLTLLASGRLMFHGPAQEALGYFESAGYHCEAYNNPADFFLDIINGDSTAVALNREEDFKATEIIEPSKRDKPLVEKLAEIYVDSSFYKETKAELHQLSGGEKKKKITVFKEISYTTSFCHQLRWVSKRSFKNLLGNPQASIAQIIVTVILGLVIGAIYFGLNNDSTGIQNRAGVLFFLTTNQCFSSVSAVELFVVEKKLFIHEYISGYYRVSSYFFGKLLSDLLPMRMLPSIIFTCIVYFMLGLKPTADAFFIMMFTLMMVAYSASSMALAIAAGQSVVSVATLLMTICFVFMMIFSGLLVNLTTIASWLSWLQYFSIPRYGFTALQHNEFLGQNFCPGLNATVNNTCNYATCTGEEYLTKQGIDLSPWGLWKNHVALACMIVIFLTIAYLKLLFLKKYS
Kd (G2_639): 14.3 nM | Kd (G2_418): 38.8 nM | Kd (G2_656): 272 nM | Kd (G2_377): 31.4 nM | Kd (G2_709): 41.4 nM | Kd (G2_336): 410 nM

B4: G2.173 Humanized 3 (antibody, V domains shown)
VH: EVQLVQSGAEVKKPGASVKVSCKASGFNIKDDYVHWVRQAPGQGLEWIGRIDPASGNTRYAPKFRGRATMTADTSISTAYMELSRLRSDDTAVYYCSPPLWVGGFAYWGQGTLVTVSS
VL: DVVMTQSPLSLPVTLGQPASISCRSSQSLVHSDVNTYLHWYQQRPGQSPRLLIYKVSNRFSGVPDRFSGSGSGTDFTLKISRVEAEDVGVYFCSQTTHVPYTFGGGTKLEIK
Kd (human ABCG2 [10]): 33.5 nM

B5: G2_360 (antibody, V domains shown)
VH: QVQLRESGPGLVQPSQTLSLTCTVSGLSLTSNSISWIRQPPGKGLEWMGVIWSTGGTDYNSAIKSRLSISRDTSKSQVFLKMNSLQTEDTAMYFCARAIAASAVMDAWGQGASVTVSS
VL: DIQMTQSPPSLSASLGDKVTITCQASQNIHKYIGWYQQKPGKAPRLLIRYTSTLESGTPSRFSGSGSGRYYSFSISNVESEDIASYYCLQYVNLWTFGGGTKLELK
Kd [11]: 156 nM | Kd (human ABCG2 [12]): 23.7 nM

B6: G2_746 (antibody, V domains shown)
VH: VKLEESGPGLVLPSQTLSLSCTVSGLSLISNSISWIRQPPGKGLEWMGVMWNNGGTDYNSAIKSRLSISRDTSKSQVFLKMNSLQTEDTAMYFCARGYSSYIFDYWGQGASVTVSS
VL: DILMTQSPPSLSASLGDKVTITCQASQNIHGYIAWYQQKPGRLPRLLIRLTSTLESGTPSRFSGSGSGRDYSFSISNVESEDLASYYCLQYVNLWTFGGGTKLELK
Kd [13]: 66.4 nM | Kd (human ABCG2 [14]): 22.3 nM

B7: G2.748 rat (antibody, V domains shown)
VH: QVSLKESGPGMLQPSKTLSLTCSFSGFSLSTSGMVVNWIRQPSGKSLEWLAAIDWDGDKYYNPSLKHRLTVSKDTSNTQVVLKITSVDTADTATYYCARSIAPYRGWFGYWGQGTLVTVSS
VL: EIVLIQSPSSLPASLGERVTIICRASQDIGNNLNWYQQKPDGTIKPLIYFTSNFQSGVPSSFSGSRSGTDFSLTISSLEAEDFAMYYCQQDASLPWTFGGGTKLEIK
Kd (human ABCG2 [1]): 0.5 nM | Kd [5]: 0.5 nM | Kd [6]: 0.5 nM | Kd (human ABCG2 [7]): 0.5 nM

B8: G2.636 rat (antibody, V domains shown)
VH: EVKLVESGGGLVQPGRSLKLSCAASGFTFSRFYMAWVRQAPTKGLEWVAHISHGGDTTYYRDSVKGRFTISRDNAKSTLFLQMDSLRSEDTATYYCTTSAAPWNYVMDGWGLGASVTVSS
VL: DIVMTQSPSLLSASVGDRVTLTCKGSQNINNFLAWYQQKLGEAPKLLIYKTNSLHTGIPSRFSGSGSGTDYTLTISSLHSEDLATYYCYQYNNGYTFGAGTKLELK
EC50 [3]: 341 nM | EC50 (human ABCG2 [4]): 80 nM | Kd [13]: 62.5 nM | Kd (human ABCG2 [14]): 10.9 nM
